Measurements reported in US20070178095A1.

Assays:
Test in all cases: ELISA, growth factor coated at 10 ug/ml, antibody at 10 ug/ml, mean of duplicate wells
[1] = biological target: Activin A (R&D Systems 338-AC) (UniProt P08476)
[2] = biological target: Activin B (R&D Systems 659-AB) (UniProt P09529)
[3] = biological target: BMP-2 (R&D Systems 355-BEC/CF) (UniProt P12643)
[4] = biological target: BMP-5 (R&D Systems 615-BM) (UniProt P22003)
[5] = biological target: BMP-6 (R&D Systems 507-BP) (UniProt P22004)
BMP-6 (R&D Systems 507-BP), sequence (P22004 382-513 limits assumed): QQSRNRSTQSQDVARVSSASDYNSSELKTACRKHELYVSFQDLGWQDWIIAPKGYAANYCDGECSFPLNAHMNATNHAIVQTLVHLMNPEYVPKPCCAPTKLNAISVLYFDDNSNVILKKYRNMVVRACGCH

[6] = biological target: BMP-7 (R&D Systems 354-BP) (UniProt P18075)
BMP-7 (R&D Systems 354-BP), sequence (P18075 293-431 limits assumed): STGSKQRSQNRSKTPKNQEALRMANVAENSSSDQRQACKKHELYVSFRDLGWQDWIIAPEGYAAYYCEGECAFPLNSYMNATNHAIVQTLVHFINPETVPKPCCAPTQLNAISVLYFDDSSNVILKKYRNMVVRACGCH

[7] = biological target: IGF-1 (R&D Systems 291-G1) (UniProt P05019)
IGF-1 (R&D Systems 291-G1), sequence (P05019 49-118 limits assumed): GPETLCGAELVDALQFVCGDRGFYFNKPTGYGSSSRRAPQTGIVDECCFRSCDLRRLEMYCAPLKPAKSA

[8] = biological target: TGF-alpha (R&D Systems 239-A) (UniProt P01135)
TGF-alpha (R&D Systems 239-A), sequence (P01135 40-89 limits assumed): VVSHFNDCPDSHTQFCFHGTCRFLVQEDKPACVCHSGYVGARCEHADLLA

[9] = biological target: TGF-beta1 (Peprotech, Inc. 100-21R) (UniProt P01137)
TGF-beta1 (Peprotech, Inc. 100-21R), sequence (P01137 279-390 limits assumed): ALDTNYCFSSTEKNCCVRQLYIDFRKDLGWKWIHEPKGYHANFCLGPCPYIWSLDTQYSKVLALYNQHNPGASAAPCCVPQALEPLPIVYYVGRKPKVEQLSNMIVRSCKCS

[10] = biological target: TGF-beta2 (Peprotech, Inc. 100-35) (UniProt P61812)
TGF-beta2 (Peprotech, Inc. 100-35), sequence (P61812 303-414 limits assumed): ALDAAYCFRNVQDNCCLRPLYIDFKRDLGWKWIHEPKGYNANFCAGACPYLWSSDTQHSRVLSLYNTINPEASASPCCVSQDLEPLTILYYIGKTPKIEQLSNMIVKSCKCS

[11] = biological target: recombinant human GDF-11 (Peprotech, Inc., Cat. # 120-11, carrier-free) (human) (UniProt O95390)
recombinant human GDF-11 (Peprotech, Inc., Cat. # 120-11, carrier-free) (human), sequence (O95390 299-407 limits assumed): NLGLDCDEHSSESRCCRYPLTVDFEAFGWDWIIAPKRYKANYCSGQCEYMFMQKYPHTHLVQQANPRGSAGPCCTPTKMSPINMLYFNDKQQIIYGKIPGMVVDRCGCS

[12] = biological target: recombinant mouse myostatin (R&D systems, Cat. #788-G8/CF, carrier-free) (mouse) (UniProt O08689)
recombinant mouse myostatin (R&D systems, Cat. #788-G8/CF, carrier-free) (mouse), sequence (O08689 268-376): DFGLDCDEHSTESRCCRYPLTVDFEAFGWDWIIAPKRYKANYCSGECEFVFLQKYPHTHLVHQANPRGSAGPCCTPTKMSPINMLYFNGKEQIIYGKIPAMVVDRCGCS

BMP-5 (R&D Systems 615-BM), sequence (P22003 317-454 limits assumed): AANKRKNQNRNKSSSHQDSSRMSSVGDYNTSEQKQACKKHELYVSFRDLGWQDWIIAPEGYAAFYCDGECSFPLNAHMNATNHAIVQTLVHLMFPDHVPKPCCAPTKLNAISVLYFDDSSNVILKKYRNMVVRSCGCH
Activin A (R&D Systems 338-AC), sequence (P08476 311-426 limits assumed): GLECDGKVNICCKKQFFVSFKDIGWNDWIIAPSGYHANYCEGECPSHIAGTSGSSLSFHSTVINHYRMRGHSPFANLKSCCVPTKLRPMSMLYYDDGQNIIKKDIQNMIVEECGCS
BMP-2 (R&D Systems 355-BEC/CF), sequence (P12643 283-396 limits assumed): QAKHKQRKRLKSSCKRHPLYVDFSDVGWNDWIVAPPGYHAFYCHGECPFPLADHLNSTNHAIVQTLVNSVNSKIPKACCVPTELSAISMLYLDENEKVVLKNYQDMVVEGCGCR
Activin B (R&D Systems 659-AB), sequence (P09529 293-407 limits assumed): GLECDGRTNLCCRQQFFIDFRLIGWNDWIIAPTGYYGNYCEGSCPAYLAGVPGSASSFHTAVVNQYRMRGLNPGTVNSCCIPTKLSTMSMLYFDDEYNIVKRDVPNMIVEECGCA

**Q.** With “polyclonal anti-myostatin antibody (R&D Systems, catalog #AF788)” as the substance, how does the absorbance at 490 nm [1] read?
**A.** 0.049 OD 490 nm

**Q.** What about the absorbance at 490 nm [2] of the same substance?
**A.** 0.0485 OD 490 nm

**Q.** And the absorbance at 490 nm [3]?
**A.** 0.0525 OD 490 nm

**Q.** What about the absorbance at 490 nm [4] of the same substance?
**A.** 0.038 OD 490 nm

**Q.** And the absorbance at 490 nm [5]?
**A.** 0.0745 OD 490 nm

**Q.** And the absorbance at 490 nm [6]?
**A.** 0.042 OD 490 nm

**Q.** What about the absorbance at 490 nm [7] of the same substance?
**A.** 0.045 OD 490 nm

**Q.** What about the absorbance at 490 nm [8] of the same substance?
**A.** 0.0445 OD 490 nm

**Q.** What about the absorbance at 490 nm [9] of the same substance?
**A.** 0.0425 OD 490 nm

**Q.** And the absorbance at 490 nm [10]?
**A.** 0.0525 OD 490 nm

**Q.** And the absorbance at 490 nm [11]?
**A.** 2.62 OD 490 nm

**Q.** What about the absorbance at 490 nm [12] of the same substance?
**A.** 2.94 OD 490 nm
